Experimental data as given in the nanobody polyreactivity screen of Harvey et al. (2022).

Assay: yeast display, Sf9 membrane polyspecificity reagent, FACS + sequencing; frameworks hold sequencing errors
Method in brief: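 After 36–48 hours of galactose induction, yeast (Saccharomyces cerevisiae BJ5465) displaying a synthetic nanobody library were stained at 4 °C for 1 hour with 10% biotinylated, detergent-solubilized Sf9 membrane reagent. Streptavidin microbeads enriched the stained cells before FACS sorting into low and high (top ~1%) gates on anti-HA and streptavidin fluorescence. Each clone's polyreactivity label reflects its gate of origin.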

Sequence	polyreactivity (PSR sort gate)
QVQLVESGGGLVQAGGSLRLSCAASGFTFWYYAMGWYRQAPGKERELVATISRGGGSTYYADSVKGRFTISRDNAKNTVYLQMNSLKPEDTAVYYCNAALTRVSRFWGGDYYYWGQGTQVTVSS	high polyreactivity
QVQLVESGGGIVQAGGSLRLSCAASGSIFSENTMGWYRQAPGKKRELVADITSGGSTNYADSVKGRFTISRDNAKNTVYLQMNSLKPEDTAVYYCNADWEAYKYNYWGQGTQVTVSS	low polyreactivity
QVQLQESGGGLVQAGGSLRLSCAASGYIFPRIYMGWYRQAPGKEREFDAGISYDAITNYADSVKGRFTISLDNAKNTVYLQMNSLKPEDTAVYYCAVSYYGTPLFTYWGQGTQVTVSS	high polyreactivity
QVQLVESGGGLVQAGGSLRLSCAASGYIFNYNAMGWYRQAPGKERELVAVIRVSVGSTYYADSVKGRFTISRDNAKNTVYLQMNSLKPEDTAVYYCAADRGARGDYWGQGTQVTVSS	high polyreactivity
QVQLVESGGGLVQAGGSLRLSCAASGRTLRLYAMGWYRQAPGKERELVAAISSRGRTYYADSVKGRFTISRDNAKNTVYLQMNSLKPEDTAVYYCAVVVYQGFRSKYYYWGQGTQVTVSS	high polyreactivity
QVQLVESGGGLVQAGGSLRLSCAASGSIFWEYAMGWYRQAPGKDREFVATISARGGRTYYADSVKGRFTSSRDNAKNTVYLQMNSLKPDATAVYYCANVGVFHLRDNYRFDYWGQGTQVTVSS	low polyreactivity
QVQLVESGGGLVQAGGSLRLSCAASGFIFRYYAMGWYRQAPGKERELVATISSGGGTHYADSVKGRFTISRDNAKNTVYLQMNSLKPEDTAVYYCNARGYRRLRTRVDYWGQGTQVTVSS	high polyreactivity
QVQLGESGGGLVQAGGSVRLICAASGGIFEWNAMGWYRQAPGKERELDAAISNTGGSTSYADSVKGRFTISRDNAMNSVYLQMNCLKPEDTAVYYCNRFPPRRYYARYYSWGQGTQVTVSS	high polyreactivity
QVQLVESGGGLVQAGGSLRLSCAASGSIFKTYAMGWNRQAPGKEREFVARITSSGGRTYYADSVKGRFTISRDNAKNTVYLQMNSLKPEDTAVYYCAKPYPRGYTTYSYDYWGQGTQVTVSS	high polyreactivity
QVQLVESGGGLVQAGGSLRLSCAASGSTSFTYMGWYRQAPGTEREVVAAIDESGGSTYYADSVKGRFTISRDNAKNTVYLQMNTLKPEDTAGYYCTRRYGRSYRWGNGYWGQGTQVTVSA	low polyreactivity
QVQLVESGGGLVQAGGSLRLSCAASGRTFKSYAMGWYRQAPGKERELVAAISYSGGSTYYADSVKGRFTISRDNAKNTVYLQMNSLKPEDTAVYYCNVVSKVIRGLSGDGYWGQGTQVTVSS	high polyreactivity
QVQLVESGGGLVQAGGSLRLSCAASGRTFSRNAMGWYRQAPGKERELVATISSSGVRTYYADSVKGRFTISRDNAKNTVYLQMNSLKPEDTAVYYCAAAWRYYSAASGYDYWGQGTQVTVSS	low polyreactivity
QVQLVESGGGLVQAGGSLRLSCAASGRIFRLYAMGWSRQAPGKERELVAAISSSGGDTYYADSVKGRFTISRDNAKNTVYLQMNSLKPEDTAVYYCNARKRYANVHYNYWGQGTQVTVSS	high polyreactivity
QVQLVETGGGLVQAGGSLRLSCAASGRTFYGNAMGWYRQAPGKEREFVAAIRGSGGSTYYADSVKGRFTISRDNAKNTVYLQMNSLKPEDTAVSYCNRGWAYGSAYYAKYYYWGQGTQVTVSS	high polyreactivity
QVQLVESGVGVVQAGGSLRLSCAASGSTYVDNAMGWYRQAPGKERELVAGNSWSGASTYYADSVKGRFTISRDNAKNTFYLQMNSLKAEDTAVYYCATRVRAYYHQSWGYTERVYWGQGTQVTVSS	high polyreactivity
QVQLVESGGGLVQAGGSLRLSCAASGFILDYNTMGWYRQAPGNERELVAAISSSGDTTYYADSVKGRFTISRDNAKNTVYLQMNSLKPEDTAVYYCAREYGDGYEYWGQGTQVTVSS	low polyreactivity
QVQLVESGGGLVQAGGSLRLSCAASGFTFKYYAMGWYRQAPGQERELVAAISSTGSTYYADSVKGRFTISRDNAKNTVYLQTNSLKPEDTAVYYCNKLFEYWGGDNDYWGRGTQVTVSS	high polyreactivity
